The supplement of paper PMC10567573

B1: SCARA5 (parent)
chain: VTEDLRLKDWEHSIALRNISLAKG
B2: KRT18 (parent)
chain: KSQDLAKIMADIRAQYDELARKNR

Variants of: B1
Experiment: protein stability index of a GFP-peptide fusion (GPS, HEK-293T) (PSI 1-6); higher = more stable
Conditions: c terminus: a fixed tail appended
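Also: lentivirally expressed fusions sorted by FACS into six bins by GFP to DsRed ratio, PSI derived from sequencing read proportions per bin multiplied by bin number.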

Protein stability index of substitutions, site by site:
I14: W 3.29, P 4.76, V 3.75, Q 3.91, C 3.26, T 3.59, G 4.17, Y 3.37, F 3.21, R 3.64, S 4.22, L 3.3, D 4.26, E 4.03, A 4.04, M 3.4, K 3.86, N 3.96, H 3.47
K23: F 2.35, G 3.14, H 3.29, P 3.44, D 3.84, C 3.1, T 2.85, L 2.95, Y 1.64, N 3.48, R 2.96, W 2.22, Q 3.09, I 2.36, A 3.04, E 3.93, M 2.16, S 3.3, V 2.29
S13: E 3.58, P 3.25, D 3.65, M 2.81, W 2.57, F 2.64, G 3.01, L 2.93, R 3.4, N 2.93, K 3.23, Q 3.68, T 3.41, C 3.08, I 2.85, V 3.37, H 3.1, A 3.37, Y 2.88
N18: M 1.81, H 2.96, K 3.5, V 1.76, P 2.81, I 2.47, W 2.47, C 2.17, L 1.35, Q 2.93, R 3.15, T 3.58, F 1.86, E 3.68, S 3.37, G 3.6, D 3.81, A 2.25, Y 1.95
G24: M 2.95, E 4.13, Y 3.14, N 3.06, D 4.08, K 3.65, C 2.83, L 2.04, Q 3.49, A 3.4, W 2.39, H 3.3, T 3.43, I 2.42, P 3.09, F 2.49, R 3.46, V 2.26, S 3.31
W10: I 3.41, E 4.62, L 3.55, D 4.67, R 4.45, T 4.26, F 3.12, Q 4.29, H 4.37, C 4.11, A 4.28, Y 3.62, M 3.67, S 4.39, G 4.63, V 4.14, P 4.41, N 4.26, K 4.22
S20: L 3.37, P 3.91, E 2.36, M 3.24, T 2.86, A 3.81, Y 2.56, Q 3.54, H 3.04, D 3.67, R 3.23, N 3.54, G 3.66, K 2.94, I 2.15, C 3.21, W 3.15, V 3.56, F 3.17
L21: S 3.85, A 4.15, I 3.19, K 4.37, Y 3.48, V 3.5, T 4.23, H 4.07, Q 3.65, R 3.56, F 3.48, M 3.68, P 4.11, G 4.03, C 3.84, E 4.4, W 3.08, D 4.8, N 4.08
A15: E 3.14, G 3.58, R 2.74, H 3.37, I 2.59, V 2.34, T 3.64, M 3.27, C 3.13, Q 3.59, N 3.42, S 3.66, F 2.86, L 2.63, W 2.46, Y 2.39, P 3.54, D 4.2, K 2.98
R17: P 3.56, H 3.41, N 3.53, C 2.84, S 3.77, I 2.07, W 2.26, D 3.94, A 3.5, Y 2.58, T 3.19, L 1.8, K 3.38, E 4.06, Q 3.21, G 3.62, M 2.56, V 1.56, F 2.49
L16: K 3.77, W 2.91, M 3.45, C 3.37, A 3.71, Y 3.14, T 3.81, E 3.73, V 3.98, D 4.32, N 4.12, H 3.45, Q 4.06, F 3.1, S 4.21, R 3.4, I 3.42, G 4, P 4.52
D9: W 2.22, K 2.82, T 3.18, R 3.14, G 2.29, V 3.01, A 2.94, P 3.37, M 1.96, Y 2.69, L 2.64, Q 3.31, E 3.17, F 2.44, N 3.12, C 3.09, S 3.17, I 2.27, H 2.71
A22: M 2.82, F 3.06, K 3.95, V 3.23, H 3.9, C 3.37, R 3.33, W 2.16, N 3.61, S 3.24, Q 3.51, G 3.14, I 3.37, P 3.77, L 2.67, T 2.97, Y 2.23, E 3.69, D 3.73
K8: T 3.27, F 2.85, Q 2.91, G 3.18, Y 2.83, S 3.28, I 2.87, P 3.48, W 2.57, V 2.82, E 3.49, M 2.77, R 3.11, H 3.44, L 3.04, N 3.48
I19: V 3.74, Q 4.44, R 4.25, L 3.05, W 2.62, G 3.99, D 4.54, S 3.98, K 4.39, T 3.93, A 3.71, P 3.9, N 3.77, Y 3.22, M 3.3, H 3.69, C 4.27, E 4.44, F 3
H12: V 2.44, Q 3.43, E 3.84, D 3.75, W 2.25, Y 2.76, K 3.61, R 3.51, L 2.38, F 2.28, A 3.2, P 3.29, T 3.51, N 3.7, C 2.62, S 3.88, G 3.63, I 2.4, M 2.77
E11: V 1.8, P 2.92, F 2.24, N 3.56, Q 3.16, K 3.3, W 2.55, G 2.87, R 2.91, D 3.33, L 2.74, C 2.47, I 1.91, A 2.51, H 2.72, S 2.98, Y 2.57, T 2.75, M 2.46

Variants of: B2
Experiment: as above
Conditions: c terminus: a fixed tail appended

Protein stability index of substitutions, site by site:
K1: M 2.81, R 2.62, L 2.88, F 3.1, Q 2.9, E 2.41, I 2.91, H 2.58, D 2.05, G 2.83, N 2.6, A 2.58, P 3.03, C 2.51
